From paper PMC9779928, “Tartrate resistant acid phosphatase 5 (TRAP5) mediates immune cell recruitment in a murine model of pulmonary bacterial infection” (Frontiers in Immunology, 2022)
Ends that are not written are not given here.

B1: secretory leukocyte protease inhibitor (natural protein, UniProt P03973 26-132, looked up)
chain: SGKSFKAGVCPPKKSAQCLRYKKPECQSDWQCPGKKRCCPDTCGIKCLDPVDTPNPTRRKPGKCPVTYGQCLMLNPPNFCEMDGQCKRDLKCCMGMCGKSCVSPVKA
notes: Commercial protein; also called SLPI; source: bought: Abcam
B2: human β-defensin-3 (peptide, UniProt P81534 23-67, looked up)
chain: GIINTLQKYYCRVRGGRCAVLSCLPKEEQIGKCSTRGRKCCRRKK
modifications: ends and bridges not checked; cysteine pairing not given here
notes: human beta-defensin 3 (hBD-3), antimicrobial peptide; also called hBD3; hBD-3; source: bought: Abcam

How the values were obtained:
[1] = biological target: T1, dephosphorylated (non-phosphorylated) osteopontin (recombinant human OPN expressed in E. coli) (human, UniProt P10451 17-314); test: SPR; hBD3, SLPI and LL37 immobilised in different flow cells (50 ug/mL in 10 mM sodium acetate pH 5.5); dOPN or pOPN flowed at 10 uL/min; BIAcore X100, 25°C, HBS-EP (10 mM HEPES, 150 mM NaCl, 3 mM EDTA, 0.05% surfactant P20, pH 7.4); Langmuir model; conditions: both partners purified
T1 construct: osteopontin (OPN), human, recombinant, expressed in E. coli, non-phosphorylated; Commercial protein; Called 'dephosphorylated' but it is simply made in E. coli (non-phosphorylated), not treated with a phosphatase; also called dOPN; SPP1; source: bought: Abcam (expressed in E. coli; purity >= 90% according to the manufacturer)
T1 sequence (P10451 17-314): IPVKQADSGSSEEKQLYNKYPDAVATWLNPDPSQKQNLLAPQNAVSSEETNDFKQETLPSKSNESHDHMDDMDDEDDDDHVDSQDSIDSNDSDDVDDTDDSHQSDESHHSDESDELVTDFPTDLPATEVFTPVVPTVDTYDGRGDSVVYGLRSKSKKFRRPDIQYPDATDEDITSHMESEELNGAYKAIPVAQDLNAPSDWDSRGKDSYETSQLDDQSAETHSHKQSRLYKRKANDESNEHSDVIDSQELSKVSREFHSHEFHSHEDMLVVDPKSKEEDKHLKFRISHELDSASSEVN

[2] = biological target: T2, phosphorylated osteopontin (recombinant human OPN derived from HEK293 cells) (human, UniProt P10451 17-314, phosphorylated (sites not given; phosphorylation pattern in Supplementary Figure 2)); test: as above; conditions: both partners purified
T2 construct: osteopontin (OPN), human, recombinant, expressed in HEK293 cells; Commercial protein; From a eukaryotic host, so it probably differs from dOPN in glycosylation as well as in phosphorylation; also called pOPN; SPP1; source: bought: Peprotech (expressed in HEK293 cells; purity >= 97% according to the manufacturer)
T2 sequence (P10451 17-314): as above

| Binder | Kd [1] [nM] | Kd [2] [nM] |
| --- | --- | --- |
| B1 | 4650 | 6.25 |
| B2 | 83.8 | 6.5 |
